Source: paper PMC12603107 (2025)

Target: T1, CI-M6P/IGF2R domains 11-13 (Homo sapiens, UniProt P11717)
T1 chain: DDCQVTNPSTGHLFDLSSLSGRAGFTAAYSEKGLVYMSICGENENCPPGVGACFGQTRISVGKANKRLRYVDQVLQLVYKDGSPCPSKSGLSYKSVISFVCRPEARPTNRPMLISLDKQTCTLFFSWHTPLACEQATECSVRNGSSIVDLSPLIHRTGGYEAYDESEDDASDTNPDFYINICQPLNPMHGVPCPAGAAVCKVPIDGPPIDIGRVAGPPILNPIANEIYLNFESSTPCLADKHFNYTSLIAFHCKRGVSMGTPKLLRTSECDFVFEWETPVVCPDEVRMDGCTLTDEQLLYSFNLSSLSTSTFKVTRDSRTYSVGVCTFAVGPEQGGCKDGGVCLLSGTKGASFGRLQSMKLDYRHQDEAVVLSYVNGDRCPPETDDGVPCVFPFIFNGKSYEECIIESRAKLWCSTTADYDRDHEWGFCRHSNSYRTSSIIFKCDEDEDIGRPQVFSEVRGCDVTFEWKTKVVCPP
Test: competitive ELISA (biotinylated IGF2)

IC50: ~5 nM
B1: IGF2 peptide (des1-6) 7-67 (protein)
chain: KSMLVLLTFLAFASCCIAAYRPSETLCGGELVDTLQFVCGDRGFYFSRPASRVSRRSRGIV
